Test results published in US20260191907A1 (INSTITUT CURIE, published 2026).

Molecular target: T1, Recombinant FGFR4 (G&P Biosciences) (human, UniProt P22455 22-369)
T1 construct: Bought protein; the SPR method says only 'Recombinant; also called rFGFR4; extracellular FGFR4
T1 sequence: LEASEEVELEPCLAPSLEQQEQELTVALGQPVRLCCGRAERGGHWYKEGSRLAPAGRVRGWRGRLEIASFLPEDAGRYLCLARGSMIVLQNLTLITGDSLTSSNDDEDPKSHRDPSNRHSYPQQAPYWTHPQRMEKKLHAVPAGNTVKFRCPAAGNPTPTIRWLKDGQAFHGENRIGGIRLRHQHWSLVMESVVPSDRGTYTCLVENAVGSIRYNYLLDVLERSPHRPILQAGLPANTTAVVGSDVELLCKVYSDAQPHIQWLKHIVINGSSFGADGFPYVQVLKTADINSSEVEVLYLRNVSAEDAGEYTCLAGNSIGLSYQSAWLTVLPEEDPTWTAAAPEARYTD
Assay: SPR (BIAcore T200), single cycle kinetics, FGFR4 amine-immobilised, nanobody as analyte, heterogeneous ligand model, component 2 (koff2); heterogeneous ligand model, component 2 (koff2)
Protocol: FIG. 3: Affinity determination of nanobodies to recombinant protein via surface plasmon resonance spectroscopy. Single cycle kinetics analysis was performed on immobilized FGFR4 through covalent amine binding on the dextran based sensor chip. The analytes A8, B1, B5, F8 and mCh were injected in 5 different concentrations followed by a dissociation phase. A final dissociation step was added after the last injection step to determine Koff rates for the KD calculations. The black curves represent the measured data and red curves show the fit analysis (heterogeneous ligand model) performed with the BIAevaluation software.
Single cycle kinetics analysis was performed with the BIAcore® T200 instrument (GE Healthcare) on CMD200M sensor chips (XanTec bioanalytics GmbH) activated with a mixture of 300 mM NHS (N-hydroxysuccinimide) and 50 mM EDC (N-ethyl-N′-(dimethylaminopropyl) carbodiimide). Recombinant FGFR1, FGFR2, FGFR3 and FGFR4 (G&P Biosciences) were immobilized on the activated biosensors (800 to 12′000 RU; 1 RU=1 pg/mm²) followed by a blocking step with 1M ethanolamine. […] Koff-rates were determined from a final dissociation step after the last injection. […] Binding parameters were determined with the heterogeneous ligand model fit of the BIAevaluation software. The black curves represent the measured data and red curves show the performed fit analysis. […]

koff: 3.75e-08 s⁻¹
B1: B5 nanobody (anti-FGFR4 sdAb, NaLi-H1 library) (VHH)
VHH: EVQLQASGGGFVQPGGSLRLSCAASGRTSWLTTMGWFRQAPGKEREFVSAISSFSSKQGYYADSVKGRFTISRDNSKNTVYLQMNSLRAEDTATYYCAYASYPRHQGNGRWKDFVEYWGQGTQVTVSS
notes: Recombinant nanobody of about 17 kDa; also called B5 sdAb; not shown: C-terminal Myc/6xHis-tag and an additional cysteine
